Publication PMC4364296 (Molecular microbiology, 2014)
Like-named read-outs stand apart in the source and are kept apart here.

B1: FtsZ-WT (natural protein, E. coli, UniProt P0A9A6 1-383, looked up)
chain: MFEPMELTNDAVIKVIGVGGGGGNAVEHMVRERIEGVEFFAVNTDAQALRKTAVGQTIQIGSGITKGLGAGANPEVGRNAADEDRDALRAALEGADMVFIAAGMGGGTGTGAAPVVAEVAKDLGILTVAVVTKPFNFEGKKRMAFAEQGITELSKHVDSLITIPNDKLLKVLGRGISLLDAFGAANDVLKGAVQGIAELITRPGLMNVDFADVRTVMSEMGYAMMGSGVASGEDRAEEAAEMAISSPLLEDIDLSGARGVLVNITAGFDLRLDEFETVGNTIRAFASDNATVVIGTSLDPDMNDELRVTVVATGIGMDKRPEITLVTNKQVQQPVMDRYQQHGMAPLTQEQKPVAKVVNDNAPQTAKEPDYLDIPAFLRKQAD
B3: His-ZipA^185–328 (domain or fragment)
chain: not shown

How the values were obtained:
[1] = target: the molecule itself; assay: sedimentation of polymers + electron microscopy
FtsZ-WT [2] = target: B1; assay: BLI
FtsZ-WT [3] = target: B1; assay: BLI; remark: listed apart in the source
FtsZ-WT [4] = target: B1; assay: BLI; remark: listed apart in the source
FtsZ-L178E = target: T1, FtsZ-L178E (E. coli, UniProt P0A9A6 1-383, L178E); assay: BLI
T1 sequence (looked up): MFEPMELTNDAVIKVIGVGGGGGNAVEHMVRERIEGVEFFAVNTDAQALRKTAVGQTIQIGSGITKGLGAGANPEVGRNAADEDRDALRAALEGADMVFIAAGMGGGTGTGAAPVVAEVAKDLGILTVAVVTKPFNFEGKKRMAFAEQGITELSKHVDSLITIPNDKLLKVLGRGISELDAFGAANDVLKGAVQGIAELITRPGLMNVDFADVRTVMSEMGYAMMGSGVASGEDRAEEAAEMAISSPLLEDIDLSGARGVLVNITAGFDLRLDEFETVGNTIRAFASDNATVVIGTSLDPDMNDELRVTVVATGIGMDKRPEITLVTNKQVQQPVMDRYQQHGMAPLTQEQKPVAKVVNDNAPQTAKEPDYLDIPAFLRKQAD

His-ZipA^185–328 [5] = target: B3; assay: BLI
His-ZipA^185–328 [6] = target: B3; assay: BLI; remark: listed apart in the source
His-ZipA^185–328 [7] = target: B3; assay: BLI; remark: listed apart in the source
His-FtsZ = target: T2, His-FtsZ (E. coli, UniProt P0A9A6 1-383); assay: BLI
T2 sequence (looked up): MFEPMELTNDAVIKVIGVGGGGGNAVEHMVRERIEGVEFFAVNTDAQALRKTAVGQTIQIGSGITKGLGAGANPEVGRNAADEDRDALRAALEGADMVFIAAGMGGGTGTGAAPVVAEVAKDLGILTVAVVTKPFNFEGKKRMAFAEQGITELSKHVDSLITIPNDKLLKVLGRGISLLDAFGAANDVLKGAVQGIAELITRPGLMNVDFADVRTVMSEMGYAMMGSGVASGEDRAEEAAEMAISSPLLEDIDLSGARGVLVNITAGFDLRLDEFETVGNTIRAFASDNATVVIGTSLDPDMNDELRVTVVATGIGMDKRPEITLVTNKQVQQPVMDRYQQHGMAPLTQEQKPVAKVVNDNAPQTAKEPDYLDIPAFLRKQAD

B1
binding result [1]: binds

B2: His-SlmA/SBS (natural protein, E. coli, UniProt P0C093 1-198, looked up)
chain: MAEKQTAKRNRREEILQSLALMLESSDGSQRITTAKLAASVGVSEAALYRHFPSKTRMFDSLIEFIEDSLITRINLILKDEKDTTARLRLIVLLLLGFGERNPGLTRILTGHALMFEQDRLQGRINQLFERIEAQLRQVLREKRMREGEGYTTDETLLASQILAFCEGMLSRFVRSEFKYRPTDDFDARWPLIAAQLQ
binding result (FtsZ-WT [2]): binds

B3
Kd (FtsZ-WT [3]): 0.77 ± 0.1 µM
Kd (FtsZ-WT [4]): 0.42 ± 0.1 µM
Kd (FtsZ-L178E): 5.3 ± 0.7 µM

B4: FtsZ-360 (domain or fragment, E. coli, UniProt P0A9A6 1-360, looked up)
chain: MFEPMELTNDAVIKVIGVGGGGGNAVEHMVRERIEGVEFFAVNTDAQALRKTAVGQTIQIGSGITKGLGAGANPEVGRNAADEDRDALRAALEGADMVFIAAGMGGGTGTGAAPVVAEVAKDLGILTVAVVTKPFNFEGKKRMAFAEQGITELSKHVDSLITIPNDKLLKVLGRGISLLDAFGAANDVLKGAVQGIAELITRPGLMNVDFADVRTVMSEMGYAMMGSGVASGEDRAEEAAEMAISSPLLEDIDLSGARGVLVNITAGFDLRLDEFETVGNTIRAFASDNATVVIGTSLDPDMNDELRVTVVATGIGMDKRPEITLVTNKQVQQPVMDRYQQHGMAPLTQEQKPVAKVVND
binding result [1]: binds

B5: MalE-CCTP (domain or fragment, E. coli, UniProt P0A9A6 367-383, looked up)
chain: KEPDYLDIPAFLRKQAD
Kd (His-ZipA^185–328 [5]): 30.8 ± 4.7 µM

B6: MinDΔ10-linker-CCTP (other, E. coli, UniProt P0AEZ3 1-260, looked up)
chain: MARIIVVTSGKGGVGKTTSSAAIATGLAQKGKKTVVIDFDIGLRNLDLIMGCERRVVYDFVNVIQGDATLNQALIKDKRTENLYILPASQTRDKDALTREGVAKVLDDLKAMDFEFIVCDSPAGIETGALMALYFADEAIITTNPEVSSVRDSDRILGILASKSRRAENGEEPIKEHLLLTRYNPGRVSRGDMLSMEDVLEILRIKLVGVIPEDQSVLRASNQGEPVILDINADAGKAYADTVERLLGEERPFRFIEEEKPEITLVTNKQVQQPVMDRYQQHGMAPLTQEQKPVAKVVNDNAPQTAKEPDYLDIPAFLRKQAD
Kd (His-ZipA^185–328 [6]): 1.4 ± 0.2 µM
Kd (His-ZipA^185–328 [7]): 11.7 ± 5.2 µM

B7: CCTP (14 amino acids) (peptide, UniProt P0A9A6 370-383, looked up)
peptide: DYLDIPAFLRKQAD
Kd (His-ZipA^185–328 [5]): 140 ± 22 µM

B8: ZipA^185–328 (untagged) (domain or fragment)
chain: not shown
Kd (His-FtsZ): 8.1 ± 1.3 µM
